Experimental data from patent publication US6699662B1, “Inhibitors of staphylococcus SarA protein function involved in the expression of staphylococcal virulence factors and the use thereof in treating staphylococcal infections” (priority 1999, dated 2004).

System: P2-P3 promoter region
Test: DNase I footprinting of SarA binding to the agr regulatory region
Design: species or system Staphylococcus aureus
Settings: 40 pM 32P-labeled DNA; regions A1, A2, B1, B2, C1, C2
Protocol: To test this notion and identify binding sites for SarA in this region, DNase I footprinting was perfomred with the purified SarA. […] The data were quantified by phosphorimaging.
SarA was allowed to bind to the DNA in a reaction mixture containing 40 pM of ^32P-labeled DNA, 10 mM Hepes (pH 7.6), 5 mM MgCl2, 1 mM CaCl2, 1 mM DTT, and 100 mM KCl at room temperature for 30 minutes. An amount of DNase I, which produced approximately 50% non-nicked DNA, was added to the reaction mixture and incubated for 2 minutes. The reaction was quenched by addition of stop solution (80% EtOH, tRNA (1 ug/ml), 0.3 M NH4OAc) and immediately put into a dry ice/EtOH bath for 30 minutes. A visible pellet was obtained after centrifugation and washed with 70% ethanol. Following denaturing gel electrophoresis, the DNA fragments were detected and quantified by phosphoimaging. The radioactivity in the bands for samples containing SarA was subtracted from the no protein control using Microsoft Excel. The concentration of SarA required to protect a cleavage site fully was determined. To identify the regions of protection within the inter-promoter region, purine sequencing was included in the analysis. Chemical sequencing was done according to standard procedures.

B1: SarA: purified full-length recombinant S. aureus (strain DB) SarA protein expressed in E. coli (protein)
chain: AITKINDCFELLSMVTYADKLKSLIKKEFSSISFEEFAVLTYISENKEKEYYLKDIINHLNYKQPQVVKAVKILSQEDYDKKRNEHDERTVLILVNAQQRKKIESLLSRVNKRITEANNEIEL
- SarA concentration at which the footprinted regions were protected by more than 50%: 3 to 6 pM
